Test results published in patent US20160193292A1 (CURATORS OF THE UNIVERSITY OF MISSOURI, published 2016).
Blank lines part the entries; values can stand above or below the binder they belong to.

B1: JNK-interacting protein 1 (JIP-1) (other, UniProt Q9WVI9 1-707, looked up)
chain: MAERESGLGGGAASPPAASPFLGLHIASPPNFRLTHDISLEEFEDEDLSEITDECGISLQCKDTLSLRPPRAGLLSAGSSGSAGSRLQAEMLQMDLIDAAGDTPGAEDDEEEEDDELAAQRPGVGPPKAESNQDPAPRSQGQGPGTGSGDTYRPKRPTTLNLFPQVPRSQDTLNNNSLGKKHSWQDRVSRSSSPLKTGEQTPPHEHICLSDELPPQGSPVPTQDRGTSTDSPCRRSAATQMAPPSGPPATAPGGRGHSHRDRIHYQADVRLEATEEIYLTPVQRPPDPAEPTSTFMPPTESRMSVSSDPDPAAYSVTAGRPHPSISEEDEGFDCLSSPERAEPPGGGWRGSLGEPPPPPRASLSSDTSALSYDSVKYTLVVDEHAQLELVSLRPCFGDYSDESDSATVYDNCASASSPYESAIGEEYEEAPQPRPPTCLSEDSTPDEPDVHFSKKFLNVFMSGRSRSSSAESFGLFSCVINGEEHEQTHRAIFRFVPRHEDELELEVDDPLLVELQAEDYWYEAYNMRTGARGVFPAYYAIEVTKEPEHMAALAKNSDWIDQFRVKFLGSVQVPYHKGNDVLCAAMQKIATTRRLTVHFNPPSSCVLEISVRGVKIGVKADDALEAKGNKCSHFFQLKNISFCGYHPKNNKYFGFITKHPADHRFACHVFVSEDSTKALAESVGRAFQQFYKQFVEYTCPTEDIYLE
notes: Endogenous protein in T-cell lysates
B3: Plenty of SH3 domains (POSH) (other)
chain: MDESALLDLLECPVCLERLDASAKVLPCQHTFCKRCLLGIVGSRNELRCPECRTLVGSGVDELPSNILLVRLLDGIKQRPWKPGPGGGGGTTCTNTLRAQGSTVVNCGSKDLQSSQCGQQPRVQAWSPPVRGIPQLPCAKALYNYEGKEPGDLKFSKGDIIILRRQVDENWYHGEVSGVHGFFPTNFVQIIKPLPQPPPQCKALYDFEVKDKEADKDCLPFAKDDVLTVIRRVDENWAEGMLADKIGIFPISYVEFNSAAKQLIEWDKPPVPGVDTAECPSATAQSTSASKHPDTKKNTRKRHSFTSLTMANKSSQGSQNRHSMEISPPVLISSSNPTAAARISELSGLSCSAPSQVHISTTGLIVTPPPSSPVTTGPAFTFPSDVPYQAALGSMNPPLPPPPLLAATVLASTPSGATAAVAAAAAAAAAAGMGPRPVMGSSEQIAHLRPQTRPSVYVAIYPYTPRKEDELELRKGEMFLVFERCQDGWYKGTSMHTSKIGVFPGNYVAPVTRAVTNASQAKVSMSTAGQASRGVTMVSPSTAGGPTQKPQGNGVAGNPSVVPTAVVSAAHIQTSPQAKVLLHMSGQMTVNQARNAVRTVAAHSQERPTAAVTPIQVQNAACLGPASVGLPHHSLASQPLPPMAGPAAHGAAVSISRTNAPMACAAGASLASPNMTSAMLETEPSGRTVTILPGLPTSPESAASACGNSSAGKPDKDSKKEKKGLLKLLSGASTKRKPRVSPPASPTLDVELGAGEAPLQGAVGPELPLGGSHGRVGSCPTDGDGPVAAGTAALAQDAFHRKTSSLDSAVPIAPPPRQACSSLGPVMNEARPVVCERHRVVVSYPPQSEAELELKEGDIVFVHKKREDGWFKGTLQRNGKTGLFPGSFVENI
notes: Endogenous scaffold protein precipitated or detected in T-cell lysates (Co-IP, IP-FCM); also called Sh3Rf1

What was measured:
[1] = biological target: B3; test: IP-FCM with α-POSH beads, lysates of stimulated OT-I T cells
Experimental: Associated proteins were assessed by immunoblot. […] Data shown are representative of 6 independent experiments. […] Red histogram represents primary analyte and is shown to serve as a bead loading control.

[2] = biological target: B3; test: IP-FCM with α-POSH beads in the presence of Tat-POSH
Rac1 = Rac1 (UniProt P63001 1-189); test: Co-IP with antibodies against Rac1 and immunoblot, OT-I blasts re-stimulated with OVA-Tet/α-CD28
Experimental: The beads were incubated with the lysates washed and probed with antibodies against the Co-IP target. The levels of associated molecules (secondary analyte/Co-IP target) were quantified relative to IP target (primary analyte/loading control). Specificity was determined by comparison to both isotype and negative control antibodies (FIG. 5 and FIG. 6). […] Shaded histogram represents the staining of an isotype control. […] These two negative controls were used to establish significance of shift above background.
Associated proteins were assessed by immunoblot.

[3] = biological target: B1; test: IP-FCM with α-JIP-1 beads in the presence of Tat-POSH

Binder: B1
- binding result [1]: binds

- binding result [2]: binds
B2: MLK-3 (enzyme, UniProt Q80XI6 1-850, looked up)
chain: MEPLKNLFLKSPLGSWNGSGSGGGGGTGGVRPEGSPKATAAYANPVWTALFDYEPNGQDELALRKGDRVEVLSRDAAISGDEGWWAGQVGGQVGIFPSNYVSRGGGPPPCEVASFQELRLEEVIGIGGFGKVYRGSWRGELVAVKAARQDPDEDISVTAESVRQEARLFAMLAHPNIIALKAVCLEEPNLCLVMEYAAGGPLSRALAGRRVPPHVLVNWAVQIARGMHYLHCEALVPVIHRDLKSNNILLLQPIEGDDMEHKTLKITDFGLAREWHKTTQMSAAGTYAWMAPEVIKASTFSKGSDVWSFGVLLWELLTGEVPYRGIDCLAVAYGVAVNKLTLPIPSTCPEPFAQLMADCWAQDPHRRPDFASILQQLEALEAQVLREMPRDSFHSMQEGWKREIQGLFDELRAKEKELLSREEELTRAAREQRSQAEQLRRREHLLAQWELEVFERELTLLLQQVDRERPHVRRRRGTFKRSKLRARDGGERISMPLDFKHRITVQASPGLDRRRNVFEVGAGDSPTFPRFRAIQLEPTESGQTWGRQSPRRLEDSSNGERRACWAWGPSSPKPGEAQNGRRRSRMDEATWYLDSDDSSPLGSPSTPPALNGNPPRPSPEPEEPRRAGPTERGNSSGTPKLIQRALLRGTALLASLGLGRDLQPPGGLSRERGESPTAPPPAQMPSPCPPELPSTPLIRLSQTTPDAHSSPTPGPLLLDLGVPSGQPSAKSPRREETRGRTVSPPPGISRSAPGTPGTPRSPPLGLISRPRPSPLRSRIDPWSFVSAGPRPSPLPSPQPAPRRAPWTLFPDSDPFWDSPPANPFRGGSQDCRTQTKDMGAQAPWAPEAGP
notes: Endogenous protein in T-cell lysates; also called MAP3K protein MLK-3

Binder: B3
- binding result (Rac1): binds

- binding result [3]: binds
- binding result [1]: binds
B4: JNK1 (enzyme, UniProt Q91Y86 1-384, looked up)
chain: MSRSKRDNNFYSVEIGDSTFTVLKRYQNLKPIGSGAQGIVCAAYDAILERNVAIKKLSRPFQNQTHAKRAYRELVLMKCVNHKNIIGLLNVFTPQKSLEEFQDVYIVMELMDANLCQVIQMELDHERMSYLLYQMLCGIKHLHSAGIIHRDLKPSNIVVKSDCTLKILDFGLARTAGTSFMMTPYVVTRYYRAPEVILGMGYKENVDLWSVGCIMGEMVCHKILFPGRDYIDQWNKVIEQLGTPCPEFMKKLQPTVRTYVENRPKYAGYSFEKLFPDVLFPADSEHNKLKASQARDLLSKMLVIDASKRISVDEALQHPYINVWYDPSEAEAPPPKIPDKQLDEREHTIEEWKELIYKEVMDLEERTKNGVIRGQPSPLAQVQQ
notes: Endogenous protein in T-cell lysates; also called 46KD JNK1
